Laboratory results published in PMC3696110, “Hsp70 Oligomerization Is Mediated by an Interaction between the Interdomain Linker and the Substrate-Binding Domain” (PLoS ONE, 2013).
Where “and” joins values, the source holds several entries; their conditions need not be identical. Equal entries are not always repeated. Where two headings read alike, the source gives them in different places.

Columns and labels:
[1] = cited from earlier work; for Protein in oligomeric state: ref [30]
Excerpt: It has been shown, for example, that up ...

peptide substrates = test system: peptide substrates; parameters: method as in PMID 10876246; conditions: two different peptide substrates; ref [3]; cited from earlier work
[2] = Secondary structure content from far-UV CD; format: physicochemical, human; conditions: K2D software; 20 µM protein, 7 mM Tris pH 7.4, 170 mM KCl, 5 mM MgCl2; 25 °C
Method: Far-UV CD spectra for all protein variants were recorded using a Jasco J-810 spectropolarimeter equipped with a Peltier holder, using a 0.1 cm path length cuvette. Typically, samples contained 20 µM protein in 7 mM Tris buffer at pH 7.4, containing 170 mM KCl and 5 mM MgCl2. The far-UV CD spectra of all the variants in their native, thermally denatured and refolded states were recorded from 198 to 250 nm, and the spectrum of the buffer was systematically subtracted from the spectra of all protein samples. The secondary structure content was estimated from the far-UV CD spectrum for each protein variant using K2D software.

[3] = Thermal denaturation monitored by far-UV CD; format: physicochemical, human
Method: Protein structural stability was analyzed by monitoring the CD signal at 222 nm upon thermal denaturation. Thermal runs were performed from 5 to 90 °C at a rate of 1 °C. min^-1. Data points were acquired every 0.1 °C with a response time of 2 s and a bandwidth of […]. After thermal denaturation, each protein sample was cooled to the starting temperature, and a second denaturation curve recorded in order to analyse the degree of reversibility of the denaturation process. Analysis of the thermal unfolding curves was performed assuming a three-state unfolding model.

[4] = Analytical SEC relative populations of oligomeric forms; format: physicochemical, human; conditions: Superdex 75, 4 °C; for Dimer population / Monomer population / Total oligomer population: 50 mM Tris pH 7.4, 150 mM KCl
Method: Analytical SEC was performed at 4 °C using a Superdex 75 10/300 GL column (GE Healthcare LifeSciences, Little Chalfont, U.K.), which had previously been calibrated using a mixture of standard proteins (Gel Filtration LMW Calibration Kit; GE Healthcare LifeSciences, Little Chalfont, U.K.). Typically, samples of the various constructs contained 70 µM of protein in 50 mM Tris buffer at pH 7.4, with 150 mM KCl, 5 mM MgCl2 and were incubated for 15 min (unless otherwise specified) at room temperature before being loaded onto the column for analysis. To evaluate the reversibility of the oligomerization process, the different elution peaks obtained for each protein variant were subsequently analyzed after concentrating the different fractions using AmiconUltra-0.5, Ultracel-3 Membrane, 3 kDa (Millipore, Bedford, MA, USA). A similar analysis was also performed at 6 µM concentration for all the protein variants to allow for a direct comparison between the results obtained by SEC and MS experiments.
The influence of substrate binding on the oligomerization properties of all the variants was examined by using the well-characterized Hsp70 substrate, the NR peptide (NRLLLTG, Genemed Synthesis Inc., San Antonio, TX, USA). A 14-fold excess of the peptide was added in each case to a fresh protein sample, incubated for 1 h at room temperature, unless otherwise specified, and then loaded onto the Superdex 75 10/300 GL column for analysis. The relative quantities of the different protein species were estimated by analysing the chromatographic profile using a Gaussian function for each elution peak (OriginPro 8, Originlab, Northampton, MA, USA) and measuring the relative area under each peak.

[5] = nESI-MS relative populations of oligomeric forms; format: physicochemical, human; conditions: 6-15 µM protein, 150 mM ammonium acetate, pH 7.4, estimated error 5% (SD of 3-4 independent experiments)
Method: Prior to MS analysis, samples were buffer exchanged into 150 mM ammonium acetate, pH 7.4, using Micro Bio-spin 6 columns (Bio-Rad, Digilab Division, Cambridge, MA, USA). For all the experiments protein concentrations ranging from 6 to 18 µM were used. In the case of the substrate binding experiments, proteins were analyzed in the presence of a 1: 1 molar ratio of the NR peptide; this substrate concentration, lower than in the SEC experiments, was chosen to ensure adequate resolution of the various charge state series, which is critical for unambiguous assignment of substrate-bound states. Due to suppression effects during nESI ionization, a relatively limited set of molar ratios could be investigated by in this way.
nESI-MS spectra were obtained according to a previously published protocol on an orthogonal time-of-flight mass spectrometer with a Z-spray source (LCT, Waters, Manchester, UK) in positive ion mode using the following parameters: capillary voltage, 1500 V; sample cone voltage, 120 V (unless otherwise specified); extraction cone voltage, 1V; and ion transfer stage pressure, 8.8 mbar. Spectra were calibrated externally using a 33 mg/ml solution of cesium iodide. Data were acquired and processed with MassLynx software (Waters, Manchester, UK), and are shown with minimal smoothing and without background subtraction. The relative abundances of the different oligomeric states were estimated from the intensities of the most abundant charge states for each construct and are expressed as a percentage of the total intensity.

∆LSBD641 = assay: Fluorescence competition assay of dansylated and non-dansylated NR peptide; format: binding, human
Method: Fluorescence competition assay. Samples containing 50 μM ∆LSBD641 and 2 μM dansylated-NR peptide (D-NR) in Tris 50 mM, pH 7.4, 150 mM KCl, 5 mM MgCl2 were incubated in the presence of different concentrations of non-dansylated NR peptide (ND-NR; 0, 50 and 200 μM) for 1h at room temperature and the dansyl fluorescence emission spectrum of each sample was recorded from 400 to 630 nm after excitation at 330 nm. The intensity at the maximum emission wavelength of three different samples for which ten spectra were recorded was averaged, and the fraction of bound D-NR peptide was then determined experimentally from the reduction in the fluorescence signal in relation to the reference sample without ND-NR peptide for which the fraction of bound D-NR peptide is known (83% of the D-NR peptide is bound in this conditions according to the affinity measured by fluorescence titration; see Figure […]
The fraction of bound D-NR peptide was theoretically calculated for each sample according to a competitive model where the two ligands bind to the same substrate-binding pocket in the chaperone and assuming different values for the affinity of the ND-NR peptide for ∆LSBD641 […]
fluorescence titration was 8 ± 2 μM).
From the mass balance of the total protein concentration (PT) in a two-ligands competitive model and substituting the concentration of each complex (PL1 and PL2, corresponding to the complex with D-NR and ND-NR peptide, respectively) by the expression obtained from the definition of the different dissociation constants, a third-order polynomial expression (A·P3 + B·P2 + C·P + D = 0) of the free concentration of protein (P) is obtained, where the coefficients of the different terms are:
(also on this page, place not known: dansylated - m M excitati on -NR sig nal ND -NR D -NR D -NR D -NR substrate -binding ND -NR K d D -NR ( PT) two -ligands substitut ing ( PL1 D -NR ND -NR third -order (A· P3 D ( P) Tdd TdTddTdTddTTTdd PKKD PKPkKLKLKKCPLLKKBA 21 211221212121 ;;;1 −= −−++=−+++==) […]
(1 picture or pasted object on this page, not shown here)

[6] = 70 µM protein, 5 mM MgCl2, 15 min at room temperature, estimated error 3.5% (SD of 3-4 independent experiments)
[7] = 6-15 µM protein, 5 mM MgCl2, estimated error 3.5% (SD of 3-4 independent experiments)

Substance | Random-coil content estimated from far-UV CD [2] [%] | α-helix content estimated from far-UV CD [2] [%] | β-sheet content estimated from far-UV CD [2] [%] | Dimer population [4, 6] [%] | Monomer population [4, 6] [%] | Dimer population [4, 7] [%] | Monomer population [4, 7] [%] | Total oligomer population [4, 7] [%] | Monomer population [5] [%] | Trimer population [5] [%] | other results
BiP/Grp78: endoplasmic reticulum resident Hsp70 chaperone | – | – | – | – | – | – | – | – | – | – | Molecules existing as oligomers ([1]; in mammalian cells, ref [29]): 40-50%; Molecules existing as oligomers ([1]; in vitro, ca. 5 µM protein, ref [28]): 40-50%
DnaK 2-538: DnaK mutant protein lacking the C-terminal 100 residues, i.e. helices C-E and part of helix B | – | – | – | – | – | – | – | – | – | – | Association rate constants vs wild type DnaK (peptide substrates): unaffected; Dissociation rate constants vs wild type DnaK (peptide substrates): considerable increase
SBD556: truncated human Hsp70 (384-556), lacks helices C, D and E and C-terminal disordered region; L542Y mutation | 54 | 21 | 25 | 7 | 93 | 3 | 97 | 3 | 82 | 2 | ∆Hm, 1st transition ([3]; CD 222 nm, 20 µM protein, 7 mM Tris pH 7.4, 170 mM KCl, 5 mM MgCl2, three-state fit (C-term two-state), SE of fit): 63.9 ± 1.9 kcal/mol; ∆Hm, 2nd transition ([3]; CD 222 nm, 20 µM protein, 7 mM Tris pH 7.4, 170 mM KCl, 5 mM MgCl2, three-state fit, SE of fit): 85.4 ± 2.6 kcal/mol; Tm, 1st transition ([3]; CD 222 nm, 5 to 90 °C at 1 °C/min, 20 µM protein, 7 mM Tris pH 7.4, 170 mM KCl, 5 mM MgCl2, three-state fit (C-term two-state), SE of fit): 46.8 ± 0.1 °C; Tm, 2nd transition ([3]; CD 222 nm, 5 to 90 °C at 1 °C/min, 20 µM protein, 7 mM Tris pH 7.4, 170 mM KCl, 5 mM MgCl2, three-state fit, SE of fit): 64.5 ± 0.1 °C and 64.5 ± 0.2 °C; Reversibility of thermal unfolding ([3]; far-UV CD, second denaturation curve after cooling): fully reversible; Total oligomer population [4, 6]: 7%; Dimer population [5]: 16%
dansylated NR peptide: NR peptide N-terminally labeled with dansyl fluorophore | – | – | – | – | – | – | – | – | – | – | Fraction of bound dansylated NR peptide, ∆LSBD641:ND-NR 1:1, experimentally determined (∆LSBD641; 50 μM ∆LSBD641, 2 μM D-NR, 50 μM ND-NR, Tris 50 mM pH 7.4, 150 mM KCl, 5 mM MgCl2, 1 h room temperature, average of three samples): 0.62 ± 0.1; Fraction of bound dansylated NR peptide, ∆LSBD641:ND-NR 1:4, experimentally determined (∆LSBD641; 50 μM ∆LSBD641, 2 μM D-NR, 200 μM ND-NR, Tris 50 mM pH 7.4, 150 mM KCl, 5 mM MgCl2, 1 h room temperature, average of three samples): 0.35 ± 0.1; D-NR peptide bound (∆LSBD641; 50 μM ∆LSBD641, 2 μM D-NR, no ND-NR, according to affinity from fluorescence titration): 83%; Affinity of dansylated vs non-dansylated NR peptide (∆LSBD641; fluorescence competition assay): essentially the same affinity
DnaK: bacterial Hsp70 homologue | – | – | – | – | – | – | – | – | – | – | Protein in oligomeric state ([1]; 0.5 mg/ml (ca. 7 µM)): approximately 20%; Protein in oligomeric state ([1]; 16 mg/ml (ca. 230 µM)): 70%
FL-Hsp70: full-length human Hsp70 1A, GenBank ID NP005336, recombinant N-hexa-His-tagged | 32 | 45 | 23 | 7 | 93 | 1 | 99 | 1 | 98 | 0 | Oligomeric species ([4]; 220 µM protein, 50 mM Tris pH 7.4): 35%; Total oligomer population [5]: 2%
